According to patent US8076087B2, “Galectin sequences and compositions and methods utilizing same for treating or diagnosing arthritis and other chronic inflammatory diseases” (Medical Research Fund of Tel Aviv Souraskv Medical Center, priority 2002, dated 2011):

Legend:
[1] = system: human fibroblasts from OA patients; assay: Apoptosis induction, annexin V/PI flow cytometry, OA fibroblasts; format: cell-based; conditions: for total cell population in the apoptotic area: 24 h, no-addition control 39.5%
Procedure: (§1) The assay was performed by Phosphatidyl Serine Detection Kit (IOP-116F FITC-conjugated, IQ Products, The Netherlands) using the manufacturer instructions. Human fibroblast cells from OA patients, synovial fluid cells and PBLs from RA and other arthritic patients were incubated with increasing concentrations of galectin-8 variants 1 and 2 (50-2000 ng/ml). Specific binding of annexin V was performed by the incubation of cells for 20 minutes on ice in a binding calcium buffer containing a saturating concentration of annexin V-fluorescein isothiocyanate (FITC) and propdium iodide (PI). After incubation, the cells were pelleted, and analyzed in FACS analyzer (Beckton Dickinson, San Jose, Calif.). Annexin V^+/PI^+ cells were defined as necrotic, while annexin V^+/PI^− cells were defined as apoptotic. The percent of the apoptotic cells of the total cells was determined.

[2] = system: synovial fluid cells from RA patients; assay: Apoptosis induction, annexin V/PI flow cytometry, synovial fluid cells; format: cell-based, human; conditions: inflammatory cells from joints of arthritic patients, lowest concentration 50 ng/ml
Procedure: as §1

TNFα = TNFα levels in media of NIH 3T3 fibroblasts (negative control cells); format: cell-based, murine; conditions: LPS 3 μg/ml, 50-2000 ng/ml, 48 hours
Procedure: (§2) Inflammatory cells and PBLs derived from joints of rheumatoid arthritic (RA) patients were cultured individually [RPMI-1640 (Sigma, Israel)]. The murine fibroblast line, NIH 3T3, was used as a control. The recombinant galectin-8 peptide (r-galectin-8) was added to the culture medium of the synovial fibroblasts at a concentration of 0.125 μM, 0.25 μM, 0.5 μM and 1 μM) together with lipopolysaccharide (LPS, 3 μg/ml). The recombinant galectin-8 peptide variants (r-galectin-8 variant 1 and r-galectin-8 variant 2) were added to all the culture mediums in the following concentrations: 50 ng/ml, 125 ng/ml, 250 ng/ml, 500 ng/ml, 750 ng/ml, 1 μg/ml and 2 μg/ml together with lipopolysaccharide (LPS, 3 μg/ml). Following 48 hours of incubation (37° C., 5% CO2), the measurement of IL-1β, TNF-α and IL-1ra production was performed in supernatants by quantitative sandwich enzyme immunoassay technique (R&D Systems, Inc., USA). Detection limits were 1 pg/ml to 14 pg/ml. IL-1ra production was tested with and without the addition of lipopolysaccharide (LPS, 3 μg/ml) to the culture media.

IL-1β = IL-1β levels in media of NIH 3T3 fibroblasts (negative control cells); format: cell-based, murine; conditions: LPS 3 μg/ml, 50-2000 ng/ml, 48 hours
Procedure: as §2

IL-1ra = IL-1ra levels in media of LPS-supplemented human synovial tissue / cell cultures, sandwich enzyme immunoassay; format: cell-based; conditions: LPS 3 μg/ml, 50-2000 ng/ml, 48 hours
Procedure: Specimen Selection and Culture Conditions: Synovial tissues were obtained from patients undergoing total knee or hip replacement for osteoarthritis (OA). Within 2 hours of removal, synovial tissues were cut into small pieces, of a few millimeters in diameter. Synovial fibroblasts were cultured in 2 ml RPMI 1640 supplemented with 2 mM L-glutamine, 100 U/ml penicillin and 100 μg/ml streptomycin sulphate (Biological Industries).
as §2

B1: galectin-8 variant 1: recombinant galectin-8 variant 1 polypeptide, SEQ ID NO: 6, isoform found in synovial fluid cells of arthritic patients (protein)
chain: MMLSLNNLQNIIYNPDLQSTQASSLELTEISRENVPKSGTPQLPSNRGGDISKIAPRTVYTKSKEARQSHFDLHENTTYELCVKSLPFAARLNTPMGPGRTVVVKGEVNANAKSFNVDLLAGKSKDIALHLNPRLNIKAFVRNSFLQESWGEEERNITSFPFSPGMYFEMIIYCDVREFKVAVNGVHSLEYKHRFKELSSIDTLEINGDIHLLEVRSW
total cell population in the apoptotic area ([1]; 50 ng/ml): 32.5% | total cell population in the apoptotic area ([1]; 125 ng/ml): 47.5% | total cell population in the apoptotic area ([1]; 250 ng/ml): 48.4% | total cell population in the apoptotic area ([1]; 500 ng/ml): 55.5% | total cell population in the apoptotic area ([1]; 750 ng/ml): 58.5% | total cell population in the apoptotic area ([1]; 1000 ng/ml): 77% | total cell population in the apoptotic area ([1]; 2000 ng/ml): 77% | percentage of apoptotic cells ([1]; increasing concentrations (50-2000 ng/ml)): gradually increased | maximal apoptotic effect [2]: approximately 100% | TNFα levels in media (TNFα): No effect | TNFα levels in media (TNFα; listed as galectin-8 var. 1): remain unaffected | IL-1β levels in media (IL-1β): No effect | IL-1β levels in media (IL-1β; listed as galectin-8 var. 1): remain unaffected | IL-1ra levels in media (IL-1ra; PBLs of RA patients): significantly and dose-dependently increased | IL-1ra levels in media (IL-1ra; PBLs of RA patients, listed as galectin-8 var. 1): decrease | IL-1ra levels in media (IL-1ra; human fibroblasts from OA patients): significantly and dose-dependently increased | IL-1ra levels in media (IL-1ra; human fibroblasts from OA patients, listed as galectin-8 var. 1): decrease | IL-1ra levels in media (IL-1ra; synovial fluid cells (SFCs)): significantly and dose-dependently increased | IL-1ra levels in media (IL-1ra; synovial fluid cells (SFCs), listed as galectin-8 var. 1): decrease
